# Laboratory results from paper PMC2278140, “Regulation of the cd38 promoter in human airway smooth muscle cells by TNF-α and dexamethasone”.
# Columns and labels:
# Settings in all cases: protein: commercial; chain copies: 2; label: 32P 5' end; blunt
# [1] = molecular target: T1, glucocorticoid receptor (GR) (human, UniProt P04150 1-777); experiment: EMSA; 20% glycerol, 5 mM MgCl2, 2.5 mM EDTA, 2.5 mM DTT, 250 mM NaCl, 50 mM Tris-HCl pH 7.5, 0.25 mg/ml poly(dI-dC), room temperature 30 min; 0.4 pmol probe in 10 μl, 5 μg extract or 1 μg GR
# T1 sequence (P04150 whole entry): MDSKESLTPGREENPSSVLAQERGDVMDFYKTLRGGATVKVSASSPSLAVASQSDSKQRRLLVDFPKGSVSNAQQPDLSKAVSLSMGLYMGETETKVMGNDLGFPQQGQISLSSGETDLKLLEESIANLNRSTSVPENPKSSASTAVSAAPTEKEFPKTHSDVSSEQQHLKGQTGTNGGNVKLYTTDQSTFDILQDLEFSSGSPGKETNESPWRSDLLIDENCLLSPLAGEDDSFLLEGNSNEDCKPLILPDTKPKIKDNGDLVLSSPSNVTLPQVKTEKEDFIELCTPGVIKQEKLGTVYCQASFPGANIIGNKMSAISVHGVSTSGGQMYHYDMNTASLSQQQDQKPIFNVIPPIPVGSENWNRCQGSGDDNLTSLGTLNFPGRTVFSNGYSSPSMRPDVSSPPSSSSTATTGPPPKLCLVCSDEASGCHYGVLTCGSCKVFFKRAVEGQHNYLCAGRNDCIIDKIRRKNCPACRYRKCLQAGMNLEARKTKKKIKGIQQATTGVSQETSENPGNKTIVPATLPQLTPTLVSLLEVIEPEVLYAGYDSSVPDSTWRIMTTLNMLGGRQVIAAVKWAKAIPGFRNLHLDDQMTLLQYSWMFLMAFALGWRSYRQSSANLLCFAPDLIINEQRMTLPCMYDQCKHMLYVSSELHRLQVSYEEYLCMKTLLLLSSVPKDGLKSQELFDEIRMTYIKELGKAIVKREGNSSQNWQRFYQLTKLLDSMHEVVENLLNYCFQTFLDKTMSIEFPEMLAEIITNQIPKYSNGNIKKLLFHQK
# [2] = molecular target: T1, glucocorticoid receptor (GR); experiment: competition; excess unlabeled vs labeled GRE consensus; 20% glycerol, 5 mM MgCl2, 2.5 mM EDTA, 2.5 mM DTT, 250 mM NaCl, 50 mM Tris-HCl pH 7.5, 0.25 mg/ml poly(dI-dC), room temperature 30 min; 0.4 pmol probe in 10 μl, 5 μg extract or 1 μg GR
# [3] = molecular target: T1, glucocorticoid receptor (GR); experiment: competition; excess unlabeled self vs labeled GRE4; 20% glycerol, 5 mM MgCl2, 2.5 mM EDTA, 2.5 mM DTT, 250 mM NaCl, 50 mM Tris-HCl pH 7.5, 0.25 mg/ml poly(dI-dC), room temperature 30 min; 0.4 pmol probe in 10 μl, 5 μg extract or 1 μg GR
# [4] = molecular target: T1, glucocorticoid receptor (GR); experiment: competition; excess unlabeled self vs labeled GRE3; 20% glycerol, 5 mM MgCl2, 2.5 mM EDTA, 2.5 mM DTT, 250 mM NaCl, 50 mM Tris-HCl pH 7.5, 0.25 mg/ml poly(dI-dC), room temperature 30 min; 0.4 pmol probe in 10 μl, 5 μg extract or 1 μg GR
# [5] = molecular target: T1, glucocorticoid receptor (GR); experiment: EMSA; anti-GR supershift; 20% glycerol, 5 mM MgCl2, 2.5 mM EDTA, 2.5 mM DTT, 250 mM NaCl, 50 mM Tris-HCl pH 7.5, 0.25 mg/ml poly(dI-dC), room temperature 30 min; 0.4 pmol probe in 10 μl, 5 μg extract or 1 μg GR
binder,measurement,setting,value
GRE1 (dsDNA) DNA 1: AATGTCACAGATGTTCTCTTAATAAAGA DNA 2: TCTTTATTAAGAGAACATCTGTGACATT,binding result,[1],binds
GRE2 (dsDNA) DNA 1: TTCCGAACTTCTGTTCTGTTTCCCTCAA DNA 2: TTGAGGGAAACAGAACAGAAGTTCGGAA,binding result,[2],no binding
GRE4 (dsDNA) DNA 1: GCCATTGTAACTGTTCTCCATCCTTATC DNA 2: GATAAGGATGGAGAACAGTTACAATGGC,binding result,[3],binds
GRE3 (dsDNA) DNA 1: AAGCACTGCCATGTTCTCACTTATAAGT DNA 2: ACTTATAAGTGAGAACATGGCAGTGCTT,binding result,[4],binds
GRE consensus (dsDNA) DNA 1: TAGAGGATCTGTACAGGATGTTCTAGAT DNA 2: ATCTAGAACATCCTGTACAGATCCTCTA,binding result,[5],binds
